These are literature values, as cited in paper PMC2726996.

Data set [1] deals with EGFR (low-affinity sites) (Homo sapiens) (UniProt P00533).
Data set [2] has as its target EGFR (high-affinity sites) (Homo sapiens) (UniProt P00533).

As usually defined, the Kd is the equilibrium constant for the complex coming apart. For EGF (from UniProt P01133), the Kd in data set [1] is 10 nM; in data set [2] it was less than 0.1 nM.
